The text below walks through data of US7517949B2, “Livin-derived peptides, compositions and uses thereof” (Hadasit Medical Research Services & Development Ltd., priority 2003, dated 2009).

“Also recorded” adds a separate entry of the source. Residues, ends and D or L forms follow the SMILES beside them. *: point of attachment. Cbz = O=C(OCc1ccccc1)*; CH2F = FC*

Experiment [1] concerns Livin cleavage in Jurkat cells. In words: Livin cleavage in Jurkat cells pre-incubated with caspase inhibitors (Western blot). The following applies: Jurkat cells pre-incubated with inhibitor prior to treatment. The class given is cell-based, human. As to the method: FIG. […]
Whole cell lysates were prepared using lysis buffer (Tris-HCl 20 mM, EDTA 2 mM, β-2-Mercaptoethanol 6 mM, NP-40 1%, SDS 0.1%). Protease inhibitors included: PMSF 1 mM, Protease inhibitor cocktail (Sigma) diluted 1:10, and Complete inhibitor cocktail (Roche, Germany) diluted 1:25. About 0.25-1×10^6 cells were lysed in a total volume of 100 μl, incubated at 4° C. for 20 minutes with vigorous vortexing. Protein content was assessed by Bradford assay (Bio-Rad, Germany), according to the manufacturer's instructions. Samples were resolved on a 10% Bis-Tris pre-cast gel, following the manufacturer's instructions (Invitrogen, USA). After transferring the gel to a PVDF membrane (Millipore, Mass. USA), the membrane was exposed to the antibodies in blocking solution (PBS 1% Casein, 0.05% Tween 20) for 1 hour, followed by three 5-minute washes with PBS. The monoclonal antibody against Livin (clone:88C570) was purchased from Imgenex, and diluted 1:3000 in blocking solution. Survivin 6E4 monoclonal antibody was used according to the manufacturer's recommendation. […]
Cells were incubated with caspase inhibitors for 1-2 hour prior to treatment with the apoptotic stimuli. […] Caspase 9 activity was assessed using caspase-9 colorimetric substrate LEHD-pNA (Biovision, Calif., USA). […]
On the technique in general: In western blotting, separated proteins are transferred to a membrane and probed.

The next experiment relates to 721.221 cells. The experiment in a line: Apoptosis of stably transfected 721.221 cells after anti-CD95/Fas treatment (nuclear morphology, acridine orange). The class given is cell-based. The following applies: 0.1 μg/ml anti-CD95/Fas antibody, 18 hours, compared with wild type 721.221 cells. As to the method: FIG. 6a: 721.221 cells stably expressing either Livin α or […], and wild type 721.221 cells, were treated with 0.1 μg/ml anti-CD95/Fas antibody for 18 hours. Nuclear morphology was visualized using acridine orange staining and used for determining apoptosis rate.
(§1) Transfection with the pIRES2-EGFP plasmid (QIAGEN, Germany) encoding p30-Livin α or p28-Livin β, and as positive controls, the full length wild type cDNA of either Livin α or β was done either by electroporation, in 721.221 cells [Mandelboim, O. et al. (1996) J. Exp. Med., 184: 913-922], or using PolyFect (QIAGEN), in human embryonic kidney 293T cells, according to manufacturers instructions. […] Thus, cells transfected with this plasmid may be monitored for transfection by the absence or presence of the GFP signal.
(§2) Nuclear morphology was visualized using acridin orange (Sigma) staining as described [Loo, D. T. et al. (1998) Methods Cell Biol., 57: 251-264]. […] The percentage of apoptotic to viable cells was counted by fluorescence microscopy and 500 cells were scored for each sample. […] Cells transfected with a GFP-containing plasmid were analyzed using Annexin-V-Cy5 and PI staining according to the manufacturer instructions (MBL, Japan). In stably transfected cultures with a rate of GFP-positive cells higher than 95%, all cells were analyzed for apoptosis. […]

The subject of experiment [2] is Jurkat cells. The experiment in a line: Protection of Livin-expressing cells from drug-induced apoptosis. The format is cell-based, human. The protocol: Primary cultures of melanoma cells were tested for the expression of Livin, XIAP and Survivin. XIAP and Survivin were widely expressed in most of the melanoma samples tested. On the other hand, Livin was expressed at variable levels, in 10 out of the 27 melanoma samples.
To further explore the cleavage of each isoform, retroviral infection to establish a Jurkat T-cell Leukemia/Lymphoma cell line and an EBV-transformed B cell line 721.221, expressing high, stable levels of either Livin α or β were used. […] A panel of the three drugs etoposide, staurosporine, and anti-CD95/Fas ligand was thus used to induce apoptosis in the transfected Jurkat and 721.221 cells. Similar results were observed when cells were treated with anti-CD95/Fas antibody (data not shown). The correlation between the timing of the cleavage and apoptosis rate was further investigated.

The subject of experiment [3] is Jurkat cells. The following applies: cited from earlier work.
The test system of another experiment is 293T cells. In words: Spontaneous apoptosis of transiently transfected 293T cells (Annexin V/PI flow cytometry of GFP-positive cells). The class given is cell-based, human. The following applies: 24 hours post-transfection, in comparison to full-length proteins or empty vector. As to the method: FIG. 6c: 293T cells were transiently transfected with the indicated plasmids. 24 hours post-transfection, cells were harvested and analyzed by flow cytometry. Apoptosis of GFP-positive cells was analyzed by Annexin-V/PI stain.
as §1, §2
For orientation: Flow cytometry measures light scatter and fluorescence of single cells or particles in a stream.

The next experiment has as its system LB33 Mel A1 cells. In words: Cell death of transiently transfected LB33 Mel A1 cells (PI stain of GFP-positive cells). The class given is cell-based, human. The following applies: data not shown; for induction of apoptosis by transient transfection: in comparison to full-length counterparts or control. As to the method: At the indicated times post transfection cells were analyzed for GFP percent as a marker of transfection, and the GFP-positive population was further analyzed for cell death using PI stain.

Regarding `COC(=O)C[C@H](NC(=O)[C@H](C)NC(=O)[C@@H](NC(=O)OCc1ccccc1)C(C)C)C(=O)CF` [zVAD-FMK] (Cbz-Val-Ala-Asp(OMe)-CH2F), in experiment [1], the “cleavage of Livin” value is “significantly diminished the cleavage of Livin”.

For `CC[C@H](C)[C@H](NC(=O)[C@H](CCC(=O)O)NC(=O)[C@@H](NC(C)=O)C(C)C)C(=O)N[C@H](C=O)CC(=O)O` [caspase 6 inhibitor] (Ac-VEID-aldehyde), in experiment [1], the “cleavage of Livin” value is on record as “not”.

B1: Livin α: full-length Livin isoform α, IAP family member, about 39 kDa (protein, listed as Homo sapiens)
chain: MGPKDSAKCLHRGPQPSHWAAGDGPTQERCGPRSLGSPVLGLDTCRAWDHVDGQILGQLRPLTEEEEEEGAGATLSRGPAFPGMGSEELRLASFYDWPLTAEVPPELLAAAGFFHTGHQDKVRCFFCYGGLQSWKRGDDPWTEHAKWFPSCQFLLRSKGRDFVHSVQETHSQLLGSWDPWEEPEDAAPVAPSVPASGYPELPTPRREVQSESAQEPGGVSPAEAQRAWWVLEPPGARDVEAQLRRLQEERTCKVCLDRAVSIVFVPCGHLVCAECAPGLQLCPICRAPVRSRVRTFLS
On to B1, for which the “rate of apoptosis following anti-CD95/Fas treatment” value with 721.221 cells is given as “lower rate of apoptosis”. The “protection from staurosporine-induced apoptosis” value with Jurkat cells [2] is reported as “can protect from staurosporine-induced apoptosis”. Also, the “protection against anti-CD95/Fas antibody-induced apoptosis” value in the experiment with Jurkat cells [3] (inventors' previous work (Ashhab 2001)) was “able to protect from apoptosis”.

B2: Livin β: full-length Livin isoform β, IAP family member, about 37 kDa (protein, listed as Homo sapiens)
chain: MGPKDSAKCLHRGPQPSHWAAGDGPTQERCGPRSLGSPVLGLDTCRAWDHVDGQILGQLRPLTEEEEEEGAGATLSRGPAFPGMGSEELRLASFYDWPLTAEVPPELLAAAGFFHTGHQDKVRCFFCYGGLQSWKRGDDPWTEHAKWFPSCQFLLRSKGRDFVHSVQETHSQLLGSWDPWEEPEDAAPVAPSVPASGYPELPTPRREVQSESAQEPGARDVEAQLRRLQEERTCKVCLDRAVSIVFVPCGHLVCAECAPGLQLCPICRAPVRSRVRTFLS
As for B2, the “protection against other chemotherapeutic agents” value in the experiment on Jurkat cells [2] (Jurkat cells, Daunorubicin, Fludarabine and Cytosine arabinoside, unpublished data) is “protect Jurkat cells”. Moreover, the “inhibition of etoposide-induced apoptosis” value in the experiment on Jurkat cells [3] (previously demonstrated by the inventors (Ashhab 2001)) is “inhibit etoposide-induced apoptosis; also recorded: can only block etoposide-induced apoptosis”.

B3: p30-Livin α: Livin α-derived peptide, cleavage product, C-terminal subunit of about 30 kDa with BIR and RING domains (protein, listed as Homo sapiens)
chain: GQILGQLRPLTEEEEEEGAGATLSRGPAFPGMGSEELRLASFYDWPLTAEVPPELLAAAGFFHTGHQDKVRCFFCYGGLQSWKRGDDPWTEHAKWFPSCQFLLRSKGRDFVHSVQETHSQLLGSWDPWEEPEDAAPVAPSVPASGYPELPTPRREVQSESAQEPGGVSPAEAQRAWWVLEPPGARDVEAQLRRLQEERTCKVCLDRAVSIVFVPCGHLVCAECAPGLQLCPICRAPVRSRVRTFLS
As for B3, the “rate of apoptosis following anti-CD95/Fas treatment” value in the experiment with 721.221 cells is on record as “gained significant pro-apoptotic activity; also recorded: much higher rate of apoptosis”. Also, the “rate of spontaneous apoptosis” value with 293T cells is reported as “significantly higher rate of spontaneous apoptosis”. Besides, in the experiment with LB33 Mel A1 cells, the “induction of apoptosis by transient transfection” value is reported as “sufficient to induce apoptosis”.

B4: p28-Livin β: Livin β-derived peptide, cleavage product, C-terminal subunit of about 28 kDa with BIR and RING domains (protein, listed as Homo sapiens)
chain: GQILGQLRPLTEEEEEEGAGATLSRGPAFPGMGSEELRLASFYDWPLTAEVPPELLAAAGFFHTGHQDKVRCFFCYGGLQSWKRGDDPWTEHAKWFPSCQFLLRSKGRDFVHSVQETHSQLLGSWDPWEEPEDAAPVAPSVPASGYPELPTPRREVQSESAQEPGARDVEAQLRRLQEERTCKVCLDRAVSIVFVPCGHLVCAECAPGLQLCPICRAPVRSRVRTFLS
B4: the “rate of spontaneous apoptosis” value in the experiment on 293T cells is “significantly higher rate of spontaneous apoptosis”. Further, the “rate of apoptosis, p28-Livin β relative to p30-Livin α” value in the experiment on LB33 Mel A1 cells (all time points tested) is on record as “more potent pro-apoptotic agent than p30-Livin α; also recorded: much higher rate of apoptosis than p30-Livin α”. Moreover, the “induction of apoptosis by transient transfection” value with LB33 Mel A1 cells was “sufficient to induce apoptosis”.
